Measurements taken from publication PMC12319226 (Frontiers in Bioinformatics, 2025).

What was measured:
Experiment in all cases: BLI
Settings in all cases: both partners purified
fHbp m001820 = molecular target: T1, fHbp m001820 (Neisseria meningitidis fHbp v3.28, …, point mutant)
T1 chain: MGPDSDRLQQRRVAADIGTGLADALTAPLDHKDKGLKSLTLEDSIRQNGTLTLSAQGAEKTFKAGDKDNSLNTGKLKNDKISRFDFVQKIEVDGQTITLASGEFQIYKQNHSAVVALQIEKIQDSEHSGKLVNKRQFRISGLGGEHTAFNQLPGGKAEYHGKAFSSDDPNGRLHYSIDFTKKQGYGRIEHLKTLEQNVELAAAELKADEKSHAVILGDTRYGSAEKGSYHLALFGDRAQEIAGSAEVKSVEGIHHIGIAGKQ

fHbp m001604 = molecular target: T2, fHbp m001604 (Neisseria meningitidis, fHbp …, point mutant)
T2 chain: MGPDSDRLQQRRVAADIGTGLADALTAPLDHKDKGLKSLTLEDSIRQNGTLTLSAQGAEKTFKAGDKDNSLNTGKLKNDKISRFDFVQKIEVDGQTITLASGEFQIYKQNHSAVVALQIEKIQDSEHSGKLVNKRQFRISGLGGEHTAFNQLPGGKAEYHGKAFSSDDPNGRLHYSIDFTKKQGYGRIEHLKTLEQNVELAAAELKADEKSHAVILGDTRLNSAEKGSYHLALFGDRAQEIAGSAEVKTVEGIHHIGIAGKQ

fHbp m001941 = molecular target: T3, fHbp m001941 (Neisseria meningitidis fHbp v3.28, …, chimera)
T3 chain: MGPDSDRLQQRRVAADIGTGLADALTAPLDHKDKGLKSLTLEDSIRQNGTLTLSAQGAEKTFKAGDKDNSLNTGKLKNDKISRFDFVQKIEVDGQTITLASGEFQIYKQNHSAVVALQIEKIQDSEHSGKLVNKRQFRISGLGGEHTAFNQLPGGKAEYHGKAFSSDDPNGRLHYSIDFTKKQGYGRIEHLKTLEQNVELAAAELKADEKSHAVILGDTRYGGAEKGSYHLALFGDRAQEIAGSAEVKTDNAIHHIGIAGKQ

fHbp m001608 = molecular target: T4, fHbp m001608 (Neisseria meningitidis, fHbp …, point mutant)
T4 chain: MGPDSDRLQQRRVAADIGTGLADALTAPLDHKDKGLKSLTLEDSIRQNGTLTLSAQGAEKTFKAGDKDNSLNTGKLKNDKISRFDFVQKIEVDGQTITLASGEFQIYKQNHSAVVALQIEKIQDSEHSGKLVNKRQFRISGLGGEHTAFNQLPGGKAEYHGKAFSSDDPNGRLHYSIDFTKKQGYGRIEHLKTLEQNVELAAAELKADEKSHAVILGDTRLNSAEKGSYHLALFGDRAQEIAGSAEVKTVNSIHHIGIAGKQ

fHbp m002334 = molecular target: T5, fHbp m002334 (Neisseria meningitidis, engineered fHbp …, chimera)
T5 chain: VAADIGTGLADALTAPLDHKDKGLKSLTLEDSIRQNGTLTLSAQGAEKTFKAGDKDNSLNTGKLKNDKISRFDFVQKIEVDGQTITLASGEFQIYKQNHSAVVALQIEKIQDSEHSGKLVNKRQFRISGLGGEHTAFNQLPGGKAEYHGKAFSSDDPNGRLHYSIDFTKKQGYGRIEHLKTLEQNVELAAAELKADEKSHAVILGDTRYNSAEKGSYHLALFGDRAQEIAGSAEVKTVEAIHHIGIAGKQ

B1: mAb 1E6 (human) (antibody, V domains shown)
VH: EVQLVQSGAEVKKPGSSVKVSCKASGGTVIDYPITWVRQAPGQGLEWVGGFVPLFRTSNYGQKFQGRVTITADKSTSTASMELNSLTSEDTAIYYCARGDTAMGPFDYWGQGTLVTVSS
VL: SYVLTQPPSLSVAPGKTATLTCGGNNIAGKTVHWYQQRPGQAPVLVISYDSDRPSGIPERFSGSNSANTATLTISRVEAGDEADYYCQVWDRNSDHWVFGGGTKLTVL
notes: source: Expi293, purified (MabSelect SuRe, SEC); copies: 2 + 2
**Q.** Which results are given for B1?
**A.** Kd (fHbp m001820): 0.531 nM; koff (fHbp m001820): 0.000171 s⁻¹; kon (fHbp m001820): 322300 ± 1430 M⁻¹ s⁻¹; Kd (fHbp m001604): 0.493 nM; koff (fHbp m001604): 0.000104 s⁻¹; kon (fHbp m001604): 210000 ± 2260 M⁻¹ s⁻¹; Kd (fHbp m001941): 0.464 nM; koff (fHbp m001941): 0.00015 s⁻¹; kon (fHbp m001941): 323000 ± 2300 M⁻¹ s⁻¹; Kd (fHbp m001608): 0.154 nM; koff (fHbp m001608): 8.28e-05 s⁻¹; kon (fHbp m001608): 537900 ± 1940 M⁻¹ s⁻¹; Kd (fHbp m002334): 0.844 nM; koff (fHbp m002334): 0.000101 s⁻¹; kon (fHbp m002334): 119300 ± 930 M⁻¹ s⁻¹
